Data as given in article PMC3953818, “Characterization and regulation of an additional actin-filament-binding site in large isoforms of the stereocilia actin-bundling protein espin” (Journal of Cell Science, 2014).
Where two headings read alike, the source gives them in different places.

What was measured:
[1] = biological target: preformed filaments of rabbit skeletal muscle actin (rabbit) (UniProt P68135); assay: co-sedimentation; purified GST fusion proteins incubated with preformed filaments of rabbit skeletal muscle actin (0.4 mg/ml) for 60 min at 37°C in 10 mM HEPES, 0.1 M KCl, 1 mM dithiothreitol, 0.5 mM ATP, 1 mM MgCl2, 1 mM NaN3, pH 7.4; 150,000 g for 60 min at 4°C; pellet and supernatant on Coomassie-stained SDS gels
[2] = biological target: monomeric actin (rabbit) (UniProt P68135)
[3] = biological target: His-tagged ankyrin repeat domain (M1-R339 of human espin 1) (human) (UniProt B1AK53); assay: pull-down; competition: the same pull-down of His–(1-339) on glutathione beads loaded with GST–(340-854), without or with synthetic peptide at 30 µM
[4] = biological target: F-actin (UniProt P68133); details: cited from earlier work
[5] = biological target: F-actin (UniProt P68133); details: cited from earlier work; remark: listed apart in the source
[6] = biological target: F-actin (UniProt P68133); details: cited from earlier work; remark: listed apart in the source
[7] = biological target: T1, GST–(340-854) human espin 1 fragment missing the V462-K487 xAB-containing peptide (human, UniProt B1AK53 340-854, missing the V462-K487 xAB-containing peptide (ΔxAB)); assay: pull-down; His-tagged ankyrin repeat domain incubated with glutathione-Sepharose beads preloaded with GST or GST–human espin 340–854 fragment in 5 mM HEPES, 10 mM imidazole, 0.1 M KCl, 1 mM dithiothreitol, 3 mM NaN3, pH 7.4, 60 min at 22°C; five washes at 4°C; Coomassie-stained SDS gels; details: both partners purified
T1 construct: human espin 1, residues D340-Y854 with V462-K487 deleted; also called ΔxAB; source: E. coli BL21 Star (DE3), purified (glutathione-Sepharose 4B), loaded on glutathione beads
T1 sequence (looked up): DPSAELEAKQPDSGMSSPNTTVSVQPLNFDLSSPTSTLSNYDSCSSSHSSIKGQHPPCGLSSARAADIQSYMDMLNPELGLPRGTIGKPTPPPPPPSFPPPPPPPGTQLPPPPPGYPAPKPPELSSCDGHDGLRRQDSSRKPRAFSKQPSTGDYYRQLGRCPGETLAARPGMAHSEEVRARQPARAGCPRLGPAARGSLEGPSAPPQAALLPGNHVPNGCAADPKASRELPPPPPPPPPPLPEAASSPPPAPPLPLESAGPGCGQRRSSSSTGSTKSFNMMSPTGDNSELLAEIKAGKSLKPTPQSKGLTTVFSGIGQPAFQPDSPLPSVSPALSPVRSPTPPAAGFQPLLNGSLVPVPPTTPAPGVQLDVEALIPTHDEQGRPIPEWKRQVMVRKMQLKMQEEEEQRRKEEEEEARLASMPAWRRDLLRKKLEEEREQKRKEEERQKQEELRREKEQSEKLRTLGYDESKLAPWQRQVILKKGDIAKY

For “GST fusion with peptide V130-K155 of rat espin 2B (domain or fragment)”, the percent of the fusion protein recovered in the high-speed pellet with F-actin [1] was 42% and the inhibition of the rate of pyrene-actin polymerization relative to the GST control, concentration series up to 5 µM [2] was 11%.

With “MYO3A tail homology domain I peptide (M3)” the percent of the His–ankyrin repeat domain still bound to GST–340-854 with 30 µM M3 [3] was 8%.

For espin 1 339-720 (from UniProt Q63618), the Kd [4] is given as 1000 nM.

In the case of “espin 1 ΔN338 ΔN338 (from UniProt Q63618)”, the Kd [5] is listed as 70 nM.

For “espin smallest isoform (from UniProt Q63618)”, the Kd [6] is listed as 220 nM.

B1: His-tagged ankyrin repeat domain (M1-R339 of human espin 1) (domain or fragment, UniProt B1AK53 1-339, looked up)
chain: MALEQALQAARQGELDVLRSLHAAGLLGPSLRDPLDALPVHHAARAGKLHCLRFLVEEAALPAAARARNGATPAHDASATGHLACLQWLLSQGGCRVQDKDNSGATVLHLAARFGHPEVVNWLLHHGGGDPTAATDMGALPIHYAAAKGDFPSLRLLVEHYPEGVNAQTKNGATPLYLACQEGHLEVTQYLVQECGADPHARAHDGMTPLHAAAQMGHSPVIVWLVSCTDVSLSEQDKDGATAMHFAASRGHTKVLSWLLLHGGEISADLWGGTPLHDAAENGELECCQILVVNGAELDVRDRDGYTAADLSDFNGHSHCTRYLRTVENLSVEHRVLSR
notes: human espin 1, ankyrin repeat domain, residues M1-R339; Expressed from ProEX HTa or HTb; also called His–(1-339); His–ankyrin repeat domain; source: E. coli BL21 Star (DE3), purified (Ni-NTA agarose); not shown: His tag, N-terminal, kept
B1: binds [7].
